Laboratory results: patent US20230056252A1 (Gilead, published 2023)
Numbering of substitutions follows the chain as printed. Names may count otherwise.

B1: hPGT121.66 AAS + W/huSP34.1.3 scFv AAS + SAV + RF (bispecific antibody, human IgG1, lambda, L234A L235A)
chain: not shown
heavy: QMQLQESGPGLVKPSETLSLTCSVSGASISDSYWSWIRRSPGKGLEWIGYVHKSGDTNYNPSLKSRVHLSLDTSKNQVSLSLTGVTAADSGKYYCARTLHGRRIYGIVAFNEWFTYFYMDVWGTGTQVTVSSASTKGPSVFPLAPSSKSTSGGTAALGCLVKDYFPEPVTVSWNSGALTSGVHTFPAVLQSSGLYSLSSVVTVPSSSLGTQTYICNVNHKPSNTKVDKKVEPKSCDKTHTCPPCPAPEAAGGPSVFLFPPKPKDTLMISRTPEVTCVVVDVSHEDPEVKFNWYVDGVEVHNAKTKPREEQYNSTYRVVSVLTVLHQDWLNGKEYKCKVSNKALPASIEKTISKAKGQPREPQVYTLPPSREEMTKNQVSLWCLVKGFYPSDIAVEWESNGQPENNYKTTPPVLDSDGSFFLYSKLTVDKSRWQQGNVFSCSVMHEALHNHYTQKSLSLSPGK
light: not shown
B2: hPGT121.66 AAS + W/huSP34.34.11 scFv AAS + SAV + R (bispecific antibody, human IgG1, lambda, L234A L235A)
chain: EVQLVESGGGLVQPGGSLRLSCAASGFTFNTYAMNWVRQAPGKGLEWVGRIRSKYNNYATYYAASVKGRFTISRDDSKNSLYLQMNSLKTEDTAMYYCVRHGNFGHSYVSWFAYWGQGTLVTVSSGGGGSGGGGSGGGGSGGGGSQAVVTQEPSLTVSPGGTVTLTCGSSTGAVTTGHYANWVQQKPGQAPRGLIGGTNKRAPGVPARFSGSLLGGKAALTLSGAQPEDEAEYYCALWYSNLWVFGGGTKLTVLEPKSSDKTHTCPPCPAPEAAGGPSVFLFPPKPKDTLMISRTPEVTCVVVDVSHEDPEVKFNWYVDGVEVHNAKTKPREEQYNSTYRVVSVLTVLHQDWLNGKEYKCKVSNKALPASIEKTISKAKGQPREPQVYTLPPSREEMTKNQVSLSCAVKGFYPSDIAVEWESNGQPENNYKTTPPVLDSDGSFFLVSKLTVDKSRWQQGNVFSCSVMHEALHNRYTQKSLSLSPGK
heavy: B1 heavy
light: not shown
B3: hPGT121.66 AAS + W/huSP34.34.12scFv AAS + SAV + R (bispecific antibody, human IgG1, lambda, L234A L235A)
chain: B2 chain with E152P, G204W, V205T, L214S, L222I, L242R
heavy: B1 heavy
light: not shown
B4: hPGT121.66 AAS + W/huSP34.34.10 scFv AAS + SAV + R (bispecific antibody, human IgG1, lambda, L234A L235A)
chain: B2 chain with E152P, L214S, L222I, L242R
heavy: B1 heavy
light: not shown
B5: hPGT121.66 AAS + W/huSP34.13.10 scFv AAS + SAV + RF (bispecific antibody, human IgG1, lambda, L234A L235A)
chain: B2 chain with N30S, S80T, K89R, M95V, E152P, L214S, L222I, L242R, Y475F
heavy: B1 heavy
light: not shown
B6: hPGT121.66 AAS + W/huSP34.3.6scFv AAS + SAV + RF (bispecific antibody, human IgG1, lambda, L234A L235A)
chain: EVQLVESGGGLVQPGGSLRLSCAASGFTFNTYAMNWVRQAPGKGLEWVGRIRSKYNNYATYYADSVKGRFTISRDDSKNSLYLQMNSLRTEDTAVYYCVRHGNFGHSYVSWFAYWGQGTLVTVSSGGGGSGGGGSGGGGSGGGGSQAVVTQPPSLTVSPGGTVTLTCGSSTGAVTTGHYANWVQQKPGQAPRGLIGGTSNRAPGVPARFSGSLSGGKAALTISGAQPEDEAEYYCALWYSARWVFGGGTKLTVLEPKSSDKTHTCPPCPAPEAAGGPSVFLFPPKPKDTLMISRTPEVTCVVVDVSHEDPEVKFNWYVDGVEVHNAKTKPREEQYNSTYRVVSVLTVLHQDWLNGKEYKCKVSNKALPASIEKTISKAKGQPREPQVYTLPPSREEMTKNQVSLSCAVKGFYPSDIAVEWESNGQPENNYKTTPPVLDSDGSFFLVSKLTVDKSRWQQGNVFSCSVMHEALHNRFTQKSLSLSPGK
heavy: B1 heavy
light: not shown
notes: also called 259
B7: hPGT121.66 AAS + W/huSP34.3.4 scFv AAS + SAV + RF (bispecific antibody, human IgG1, lambda, L234A L235A)
chain: B6 chain with P152E, G177S, N200K, G204W, V205T, S214L, I222L, R242L
heavy: B1 heavy
light: not shown
notes: also called 258
B8: huSP34.14.8 scFv AAS + SAV + R (Fc fusion)
chain: B2 chain with R19S, N30S, S80T, K89R, M95V, L222I, L242R
notes: also called R19S
B9: huSP34.27.8 scFv AAS + SAV + R (Fc fusion)
chain: B2 chain with R19S, N30S, T60E, S80T, K89R, M95V, L222I, L242R
notes: also called R19S, T57E; R19S + T57E
B10: huSP34.19.8 scFv AAS + SAV + R (Fc fusion)
chain: B2 chain with N30S, S80T, Q84E, K89R, M95V, L222I, L242R
notes: also called Q81E
B11: huSP34.28.8 scFv AAS + SAV + R (Fc fusion)
chain: B2 chain with R19S, N30S, G68S, S80T, K89R, M95V, L222I, L242R
notes: also called R19S, G65S; R19S + G65S
B12: huSP34.26.8 scFv AAS + SAV + R (Fc fusion)
chain: B2 chain with R19S, N30S, T60A, S80T, K89R, M95V, L222I, L242R
notes: also called R19S, T57A; R19S + T57A
B13: huSP34.33.8 scFv AAS + SAV + R (Fc fusion)
chain: B2 chain with N30S, G68S, S80T, Q84E, K89R, M95V, L222I, L242R
notes: also called G65S, Q81E; G65S + Q81E
B14: huSP34.25.8 scFv AAS + SAV + R (Fc fusion)
chain: B2 chain with N30S, T60A, G68S, S80T, K89R, M95V, L222I, L242R
notes: also called T57A, G65S; T57A + G65S

target: CD3 on rhesus monkey T cells in PBMCs (rhesus monkey); assay: flow cytometry on PBMCs, % anti-huIgG+ CD4+ cells, donor rh 3563
Sequence (P16003 26-458): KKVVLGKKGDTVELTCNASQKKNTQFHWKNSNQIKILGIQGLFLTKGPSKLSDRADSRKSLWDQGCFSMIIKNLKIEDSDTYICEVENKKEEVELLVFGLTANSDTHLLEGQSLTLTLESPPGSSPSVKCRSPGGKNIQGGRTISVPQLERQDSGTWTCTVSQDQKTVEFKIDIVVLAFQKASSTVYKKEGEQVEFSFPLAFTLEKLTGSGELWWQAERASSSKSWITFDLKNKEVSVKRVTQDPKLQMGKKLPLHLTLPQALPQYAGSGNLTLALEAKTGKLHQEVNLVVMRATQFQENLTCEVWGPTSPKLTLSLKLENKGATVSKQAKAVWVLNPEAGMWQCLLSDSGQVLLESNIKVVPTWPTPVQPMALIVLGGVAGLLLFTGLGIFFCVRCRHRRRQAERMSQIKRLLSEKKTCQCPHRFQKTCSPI

Binder | EC50
B1 | 0.4 µg/mL
B2 | 0.07 µg/mL
B3 | 0.68 µg/mL
B4 | 0.05 µg/mL

target: T1, CD3 expressed on cell-surface of primary human T cells (human, UniProt P07766 23-207; P04234 22-171); assay: flow cytometry on human PBMCs, CD4+ cells, donor 4574
T1 construct: also called cell-surface CD3; human CD3
T1 sequence (P07766 23-207 limits assumed, chain 1 of 2): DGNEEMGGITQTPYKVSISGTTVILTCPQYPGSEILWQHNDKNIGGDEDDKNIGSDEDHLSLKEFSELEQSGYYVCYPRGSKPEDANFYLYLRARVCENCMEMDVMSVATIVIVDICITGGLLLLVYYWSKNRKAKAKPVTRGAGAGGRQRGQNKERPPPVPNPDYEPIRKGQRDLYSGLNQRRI
T1 sequence (P04234 22-171 limits assumed, chain 2 of 2): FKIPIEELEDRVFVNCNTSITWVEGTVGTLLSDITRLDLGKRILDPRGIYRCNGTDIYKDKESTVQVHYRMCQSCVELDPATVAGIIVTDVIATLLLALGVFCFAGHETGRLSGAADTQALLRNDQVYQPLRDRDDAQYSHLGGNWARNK
Method: (§1) Briefly, peripheral blood mononuclear cells (PBMCs) were incubated with different concentrations of HIV×CD3 bispecific molecules for 1 hour at RT. […] Cells were then washed, fixed/permeabilized, and analyzed using BD LSRFortessa according to the manufacturer's protocol. The percentage of α-huIgG-APC-positive CD4+ and CD8+ T cells and the mean fluorescence intensity of the α-huIgG-APC of CD4+ and CD8+ cells were collected, and data analyzed using GraphPad Prism.
(§2) Binding experiments were performed using PBMCs from two healthy human donors.

Binder | EC50
B1 | 0.33 µg/mL
B5 | 0.037 µg/mL
B6 | 1.4 µg/mL
B7 | 5.7 µg/mL

target: CD3 on rhesus monkey T cells in PBMCs (rhesus monkey); assay: flow cytometry on PBMCs, % anti-huIgG+ CD8+ cells, donor rh 3563

Binder | EC50
B1 | 1.02 µg/mL
B2 | 0.22 µg/mL
B3 | 1.24 µg/mL
B4 | 0.16 µg/mL

target: T1, CD3 expressed on cell-surface of …; assay: flow cytometry on human PBMCs, CD8+ cells, donor 3761
Method: as §1, §2

Binder | EC50
B1 | 0.36 µg/mL
B5 | 0.095 µg/mL
B6 | 0.48 µg/mL
B7 | 1.3 µg/mL

target: T1, CD3 expressed on cell-surface of …; assay: flow cytometry on human PBMCs, CD4+ cells, donor 3761
Method: as §1, §2

Binder | EC50
B1 | 0.32 µg/mL
B5 | 0.045 µg/mL
B6 | 0.65 µg/mL
B7 | 5.1 µg/mL

target: CD3 on rhesus monkey T cells in PBMCs (rhesus monkey); assay: flow cytometry on PBMCs, % anti-huIgG+ CD8+ cells, donor rh 3483

Binder | EC50
B1 | 0.55 µg/mL
B2 | 0.11 µg/mL
B3 | 0.93 µg/mL
B4 | 0.1 µg/mL

target: T2, MabSelect SuRe (engineered Protein A); assay: 500 ml Expi293 expression, MabSelect SuRe capture and cation exchange; purified homodimer yield relative to parent
T2 construct: also called MabSelect SuRe column
Method: 500 ml of Expi293 cells were transfected with 0.5 mg DNA encoding selected huSP34 scFv-Fc Protein A knockout variants according to manufacturer's protocol. Four days post transfection, the cell-free clarified supernatant was collected and loaded to a MabSelect™ SuRe™ (Cytiva Life Sciences) column. Afterwards the column was washed with a low salt buffer of 25 mM Tris HCl pH 7.5, 25 mM NaCl for 10 column volumes (CV), then high salt wash of 25 mM Tris HCl pH 7.5, 500 mM NaCl for 5CV to remove non-specific binding, and finally washed with a low salt wash of 25 mM Tris HCl pH 7.5, 25 mM NaCl for 10CV. To elute the antibody, an isocratic elution step of 100 mM sodium acetate pH 3.7 was performed. The eluted pool was neutralized to pH 6.0 with 1 M Tris HCl pH 9.0, and subjected to a cation ion purification, HiTrap SP HP (Cytiva Life Sciences) to further remove impurities. The cation captured protein was washed with 10 mM sodium phosphate pH 7.0 for 10CV, then eluted in 0-30% gradient of 10 mM sodium phosphate pH 7.0, 1M NaCl for 50CV to separate the desired two targeting arm antibody (heterodimer) from the one targeted arm antibody (homodimer). Followed with gradient elution from 30-100% of 10 mM sodium phosphate pH 7.0, 1 M NaCl for 10CV to remove aggregation or homodimer in higher isoelectric point (pI). All proteins were formulated into 20 mM histidine pH 5.8 by dialysis, added additive of sucrose/tween-80, sterile filtered, and stored at 4° C. Concentration of the formulated protein was measured by A280. Purity was assessed as percent monodispersed by analytical size-exclusion chromatography. Identity of the bispecific antibody was determined by Mass Spec (MS).

Binder | scFv-Fc Homodimer Yield Relative to WT (e.g. Protein A binding)
B8 | 21%
B9 | 8%
B10 | 86%
B11 | 1.5%
B12 | 8%
B13 | 0.7%
B14 | 1%

target: T1, CD3 expressed on cell-surface of …; assay: flow cytometry on PBMCs, % anti-huIgG+ CD4+ cells, donor hu 151

Binder | EC50
B1 | 0.41 µg/mL
B2 | 0.08 µg/mL
B3 | 0.51 µg/mL
B4 | 0.06 µg/mL

target: T1, CD3 expressed on cell-surface of …; assay: flow cytometry on PBMCs, % anti-huIgG+ CD8+ cells, donor hu 151
Method: (§3) Briefly, PBMCs from healthy human donors and healthy rhesus or cynomolgus monkey donors were incubated with different concentrations of HIV×CD3 bispecific molecules for 1 hour at RT. […] Cells were then washed, fixed/permeabilized, and analyzed on BD LSRFortessa. The percentage of α-huIgG-APC-positive CD4+ and CD8+ T cells and the mFI of the α-huIgG-APC of CD4+ and CD8+ cells were collected, and data analyzed using GraphPad Prism.

Binder | EC50
B1 | 0.44 µg/mL
B2 | 0.1 µg/mL
B3 | 0.85 µg/mL
B4 | 0.07 µg/mL

target: T1, CD3 expressed on cell-surface of …; assay: flow cytometry on human PBMCs, CD8+ cells, donor 4574
Method: as §1, §2

Binder | EC50
B1 | 0.35 µg/mL
B5 | 0.062 µg/mL
B6 | 1.1 µg/mL
B7 | 4.8 µg/mL

target: CD3 on rhesus monkey T cells in PBMCs (rhesus monkey); assay: flow cytometry on PBMCs, % anti-huIgG+ CD4+ cells, donor rh 3483

Binder | EC50
B1 | 0.33 µg/mL
B2 | 0.06 µg/mL
B3 | 0.46 µg/mL
B4 | 0.03 µg/mL

target: T1, CD3 expressed on cell-surface of …; assay: flow cytometry on PBMCs, % anti-huIgG+ CD4+ cells, donor hu 340
Method: as §3

Binder | EC50
B1 | 0.42 µg/mL
B2 | 0.09 µg/mL
B3 | 0.57 µg/mL
B4 | 0.06 µg/mL

target: T1, CD3 expressed on cell-surface of …; assay: cell-based or functional assay

Binder | killing EC50, primary HIV-infected CD4+ cells, PBMC effector cells, isolate 657 | killing EC50, primary HIV-infected CD4+ cells, PBMC effector cells, isolate 7552
B1 | 1.61 µg/mL | 0.107 µg/mL
B5 | 0.275 µg/mL | 0.011 µg/mL
B6 | 2.37 µg/mL | 0.123 µg/mL

target: T1, CD3 expressed on cell-surface of …; assay: flow cytometry on PBMCs, % anti-huIgG+ CD8+ cells, donor hu 340
Method: as §3

Binder | EC50
B1 | 0.68 µg/mL
B2 | 0.13 µg/mL
B3 | 0.88 µg/mL
B4 | 0.08 µg/mL
